These results are taken from patent US20230250176A1 (DRAGONFLY THERAPEUTICS, published 2023).

The target in assay [1] is T1, mouse Tyrp1 on B16F10 and CT26-Tyrp1 cells (mouse, UniProt P07147 25-537).
T1 construct: whole, on cells
The experiment in a line: flow cytometry on CT26-Tyrp1 cells, anti-mouse IgG-Fc secondary, MFI minus background, 4-parameter fit. On the technique in general: In flow cytometry, cells or beads pass a laser one at a time.

In assay [2] the target is T1, mouse Tyrp1 on B16F10 and CT26-Tyrp1 …. As to the kind of experiment: flow cytometry on B16F10 cells, anti-mouse IgG-Fc secondary, MFI minus background, 4-parameter fit.
For assay [3], the target named is purified recombinant rat EGFR (rat, UniProt A0ABK0LZB0 35-651). The experiment in a line: SPR (Biacore 8K), 37 C.
Protocol: (§1) Measurements were performed at physiological temperature of 37° C. using a Biacore8K SPR system.
For assay [4], the target named is purified recombinant mouse EGFR (mouse, UniProt Q01279 25-647, limits assumed). As to the kind of experiment: SPR (Biacore 8K), 37 C.
Protocol: as §1
Assay [5] addresses T2, human NKG2D on cells (human, UniProt P26718 1-216).
T2 construct: whole, on cells; also called NKG2D on KHYG-1 parental cells; NKG2D on CD8+ T cells and NK cells
T2 sequence (looked up): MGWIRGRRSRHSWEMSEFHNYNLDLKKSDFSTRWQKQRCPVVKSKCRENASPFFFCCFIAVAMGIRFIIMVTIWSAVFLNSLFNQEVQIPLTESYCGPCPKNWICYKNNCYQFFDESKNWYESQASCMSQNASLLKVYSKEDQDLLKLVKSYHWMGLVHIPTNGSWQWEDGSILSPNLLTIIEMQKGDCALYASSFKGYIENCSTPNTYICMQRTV
As to the kind of experiment: flow cytometry, AF647-conjugated test article on KHYG-1 parental cells (NKG2D+, CD16a-).

B1: TA99 (antibody, V domains shown)
VH: EVQLQQSGAELVRPGALVKLSCKTSGFNIKDYFLHWVRQRPDQGLEWIGWINPDNGNTVYDPKFQGTASLTADTSSNTVYLQLSGLTSEDTAVYFCTRRDYTYEKAALDYWGQGASVIVSS
VL: DIQMSQSPASLSASVGETVTITCRASGNIYNYLAWYQQKQGKSPHLLVYDAKTLADGVPSRFSGSGSGTQYSLKISSLQTEDSGNYYCQHFWSLPFTFGSGTKLEIK
For orientation: EC50 means the midpoint of the concentration-response curve. With B1, the EC50 in assay [1] was determined as 14.6 nM; in assay [2], 11 nM.

B2: panitumumab (antibody, IgG2, V domains shown)
VH: QVQLQESGPGLVKPSETLSLTCTVSGGSVSSGDYYWTWIRQSPGKGLEWIGHIYYSGNTNYNPSLKSRLTISIDTSKTQFSLKLSSVTAADTAIYYCVRDRVTGAFDIWGQGTMVTVSS
VL: DIQMTQSPSSLSASVGDRVTITCQASQDISNYLNWYQQKPGKAPKLLIYDASNLETGVPSRFSGSGSGTDFTFTISSLQPEDIATYFCQHFDHLPLAFGGGTKVEIK
With B2, the binding result in assay [3] is “no binding”; in assay [4], “no binding”; in assay [5], “no binding (tested: 800 nM)”.
